Data from US20130131322A1 (MEDICAL AND BIOLOGICAL LABORATORIES, published 2013).

T1: transmembrane TGF-α (human TGF-α positions 1 to 160) expressed on 293T cells (human, UniProt P01135 24-160)
T1 construct: also called TGF-α/293T; TGFα/293T
T1 sequence: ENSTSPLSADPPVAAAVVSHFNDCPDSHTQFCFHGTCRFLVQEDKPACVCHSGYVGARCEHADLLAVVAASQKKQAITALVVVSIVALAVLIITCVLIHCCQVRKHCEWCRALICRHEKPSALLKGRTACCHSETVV


Tests used:
[1] = target: commercially-available secreted TGF-α biosynthesized by Escherichia coli (R&D systems Inc.) (human, UniProt P01135 40-89); assay: cell-based or functional assay
[2] = target: T2, G79A-substituted human TGF-α expressed on 293T cells (human, UniProt P01135 24-160); assay: flow cytometry on 293T cells
T2 construct: Made from pDIG-TGF-α (positions 1 to 160); also called G79A substitution analog; G79A-substituted TGF-α
Description: (§1) After washed with a wash buffer twice, the cells were allowed to react with a 200-fold diluted PE-labeled anti-mouse IgG antibody (MBL CO., LTD.) at 4° C. for 60 minutes.

[3] = target: T3, H74A-substituted human TGF-α expressed on 293T cells (human, UniProt P01135 24-160); assay: flow cytometry on 293T cells
T3 construct: Made from pDIG-TGF-α (positions 1 to 160); also called H74A substitution analog
Description: as §1

TGF-α-hFc = target: T4, TGF-α-hFc (human, UniProt P01135 40-89); assay: solid phase ELISA, TGFα-hFc on plate
T4 construct: not shown: Fc portion of human immunoglobulin G1, fused on the C-terminal side

proTGF-α-hFc = target: T5, proTGF-α-hFc (human, UniProt P01135 24-89); assay: solid phase ELISA, proTGFα-hFc on plate
T5 construct: not shown: Fc portion of human immunoglobulin G1, fused on the C-terminal side

[4] = target: T1, transmembrane TGF-α (human TGF-α …); assay: flow cytometry, culture supernatant on transmembrane TGF-α/293T

Binder	inhibition of EGFR tyrosine phosphorylation (P-Tyr1173) in A431 cells, antibody at 10 µg/mL [1]	binding result [2]	binding result [3]	OD (solid phase ELISA) (TGF-α-hFc)	OD (solid phase ELISA) (proTGF-α-hFc)	binding result [4]
MBL292-1 (antibody, mouse IgG1, V domains shown) VH: VQLQQSGAELVRPGASVKLSCTASGFNIKDDYMHWMKQRPEQGLEWIGRIDPANGNTKYAPKFQDKATITADTSSNTAYLQLSSLTSEDTAVYYCSRMGLLRGYWGQGTTLTVSS VL: IQMTQSSSSLSVSLGDRVTITCKASVHINSWLAWYQQKPGNAPRLLISGATNLKTGVPSRFSGSASGKDYTLSITSLQTEDVATYYCQQYWDTPWTFGGGTKLEIK	≥ 70%	no binding (tested: 5 µg/mL)	binds	1.04 OD	1.45 OD	–
MBL352-34 (antibody, mouse IgG1, V domains shown) VH: VQLQQSGAELVRPGASVKLSCTASGFNIKDDYMHWVKQRPEQGLEWIGRIDPANGHTKYAPKFQDKATITADTSSNTAYLQFSSLTSEDTAVYYCTRMGLRRGYWGQGTTLTVSS VL: IQMTQSSSSLSVSLGDRVTITCKASEHINSWLAWYQQKPGNAPRLLISGATNLKTGVPSRFSGSASGKDYTLSITSLQTEDVATYYCQQYWGTPWTFGGGTKLEIK	≥ 70%	no binding (tested: 5 µg/mL)	binds	0.704 OD	1.35 OD	–
humanized chimeric anti-TGF-α antibody of MBL352-34 (antibody, human IgG1, V domains shown, tested as 293T culture supernatant; also called recombinant antibody MBL352-34) VH: VQLQQSGAELVRPGASVKLSCTASGFNIKDDYMHWVKQRPEQGLEWIGRIDPANGHTKYAPKFQDKATITADTSSNTAYLQFSSLTSEDTAVYYCTRMGLRRGYWGQGTTLTVSS VL: IQMTQSSSSLSVSLGDRVTITCKASEHINSWLAWYQQKPGNAPRLLISGATNLKTGVPSRFSGSASGKDYTLSITSLQTEDVATYYCQQYWGTPWTFGGGTKLEIK	–	–	–	–	–	binds
MBL184-6 (antibody, mouse IgG1, V domains shown) VH: EVQLQQSGAELVRPGASVKLSCTVSGFNIKDDYMHWVKQRPEQGLEWIGRIDPANGHTKYAPKFQDKATITADTSSNTAYLQFSSLTSEDTAVYYCTRMGLRRGYWGQGTTLTVSS VL: IQMTQSSSSLSVSLGDRVTITCKASEHINSWLAWYQQKPGNAPRLLISGATNLKTGVPSRFSGSASGKDYTLNITSLQTEDVATYYCQQYWGTPWTFGGGTKLEIK	≥ 70%	no binding (tested: 5 µg/mL)	binds	0.745 OD	1.4 OD	–
MBL016-8 (antibody, mouse IgG2a, V domains shown) VH: VQLQQSGAELVRPGASVKLSCTASGFNIKDDYMYWVKQRPEQGLEWIGRIDPANGNTKYAPKFQDKATITADTSSNTAYLHLSSLTSEDTAVFYCAYRRAYWGQGTLVTVSA VL: DIQMTQSPSSLSASLGGKVTITCKASQDINKYIAWYQHKPGKGPRLFIHYTSKLQPGIPSRFSGSGSGRDYSFSISNLEPEDIATYYCLQYDNLLYTFGGGTKLEIK	≥ 70%	no binding (tested: 5 µg/mL)	binds	0.869 OD	1.37 OD	–
MBL144-1 (antibody, mouse IgG1, V domains shown) VH: VQLQESGPGLAKPSQTLSLTCSVTGYSITSDYWNWIRKFPGNKLEYMGYISYSGSTYYNPSLKSRISITRDTSKNQYYLQLNSVTTEDTATYYCARSYDGICFDNWGQGTTLTVSS VL: DILMTQSPATLSVTPGETVSLSCRASQNTYKNLHWYQQKSHGTPKLLIKYASAPISGIPSRFTGSGSGTDYTLSINSVKPEDEGIYYCLQGYSMPWTFGGGTKLEIK	≥ 70%	no binding (tested: 5 µg/mL)	binds	0.65 OD	1.42 OD	–
MBL018-1 (antibody, mouse IgG1, V domains shown) VH: EVQLQQSGTVLTRPGASVKMSCKASGYTFTNFWIHWVKQRPGQGLDWIGAIYPGNTNTDYNQKFQGKAKLTAVSSASTAYMELSSLTNEDSAVYYCTRGGAMDYWGQGTSVTVSS VL: IVMTQTPKLLPVSAGDRVTMTCKASQSVDNSVAWYQQKPGQSPKLLIFYASNHYTGVPDRFTASGSGTDFTFTISSVQVEDLAVYFCQQHFSSPRTFGGGTKLEIR	≥ 70%	no binding (tested: 5 µg/mL)	binds	0.703 OD	1.51 OD	–
MBL009-15 (antibody, mouse IgG1, V domains shown) VH: VQLQESGPGLVKPSQSLSLTCTVTGYSITSDYAWNWIRQFPGNKLEWMGYISYSGSTSYNPSLKSRISITRDTSKNQFFLQLNSVTTEDTATYYCARGGITRFAYWGQGTLVTVSA VL: DIQMTQTTSSLSASLGDRLTISCRASQDIRNYLNWYQQKPDGTVKLLIYYTSRLHSGVPSRFSGSGSGTDYSLTISNLEQEDIATYFCQQGNTLPWTFGGGTKLEIK	–	no binding (tested: 5 µg/mL)	binds	0.879 OD	1.51 OD	–
MBL259-3 (antibody, mouse IgG2a, V domains shown) VH: VQLQQSGAELVRPGASVKLSCTASDFNIKDDYMHWMKQRPEQGLEWIGRIDPANGNTKYAPKFQDKATMTADTSSNTAYLQFSSLTSEDTAVYYCATSWGFPYWGQGTLVTVSA VL: DIVMTQAAPSVPVTPGESVSISCRSSKSLLHRNGNTYLYWFLQRPGQSPQLLIYRMSNLASGVPDRFSGSGSGTAFTLRISRVEAEDVGVYYCLQHLEYPYTFGSGTKLEIK	–	no binding (tested: 5 µg/mL)	binds	1.11 OD	1.59 OD	–
humanized chimeric anti-TGF-α antibody of MBL009-15 (antibody, human IgG1, V domains shown, tested as 293T culture supernatant; also called recombinant antibody MBL009-15) VH: VQLQESGPGLVKPSQSLSLTCTVTGYSITSDYAWNWIRQFPGNKLEWMGYISYSGSTSYNPSLKSRISITRDTSKNQFFLQLNSVTTEDTATYYCARGGITRFAYWGQGTLVTVSA VL: DIQMTQTTSSLSASLGDRLTISCRASQDIRNYLNWYQQKPDGTVKLLIYYTSRLHSGVPSRFSGSGSGTDYSLTISNLEQEDIATYFCQQGNTLPWTFGGGTKLEIK	–	–	–	–	–	binds
humanized chimeric anti-TGF-α antibody of MBL016-8 (antibody, human IgG1, V domains shown, tested as 293T culture supernatant; also called recombinant antibody MBL016-8) VH: VQLQQSGAELVRPGASVKLSCTASGFNIKDDYMYWVKQRPEQGLEWIGRIDPANGNTKYAPKFQDKATITADTSSNTAYLHLSSLTSEDTAVFYCAYRRAYWGQGTLVTVSA VL: DIQMTQSPSSLSASLGGKVTITCKASQDINKYIAWYQHKPGKGPRLFIHYTSKLQPGIPSRFSGSGSGRDYSFSISNLEPEDIATYYCLQYDNLLYTFGGGTKLEIK	–	–	–	–	–	binds
humanized chimeric anti-TGF-α antibody of MBL018-1 (antibody, human IgG1, V domains shown, tested as 293T culture supernatant; also called recombinant antibody MBL018-1) VH: EVQLQQSGTVLTRPGASVKMSCKASGYTFTNFWIHWVKQRPGQGLDWIGAIYPGNTNTDYNQKFQGKAKLTAVSSASTAYMELSSLTNEDSAVYYCTRGGAMDYWGQGTSVTVSS VL: IVMTQTPKLLPVSAGDRVTMTCKASQSVDNSVAWYQQKPGQSPKLLIFYASNHYTGVPDRFTASGSGTDFTFTISSVQVEDLAVYFCQQHFSSPRTFGGGTKLEIR	–	–	–	–	–	binds
humanized chimeric anti-TGF-α antibody of MBL144-1 (antibody, human IgG1, V domains shown, tested as 293T culture supernatant; also called recombinant antibody MBL144-1) VH: VQLQESGPGLAKPSQTLSLTCSVTGYSITSDYWNWIRKFPGNKLEYMGYISYSGSTYYNPSLKSRISITRDTSKNQYYLQLNSVTTEDTATYYCARSYDGICFDNWGQGTTLTVSS VL: DILMTQSPATLSVTPGETVSLSCRASQNTYKNLHWYQQKSHGTPKLLIKYASAPISGIPSRFTGSGSGTDYTLSINSVKPEDEGIYYCLQGYSMPWTFGGGTKLEIK	–	–	–	–	–	binds
humanized chimeric anti-TGF-α antibody of MBL184-6 (antibody, human IgG1, V domains shown, tested as 293T culture supernatant; also called recombinant antibody MBL184-6) VH: EVQLQQSGAELVRPGASVKLSCTVSGFNIKDDYMHWVKQRPEQGLEWIGRIDPANGHTKYAPKFQDKATITADTSSNTAYLQFSSLTSEDTAVYYCTRMGLRRGYWGQGTTLTVSS VL: IQMTQSSSSLSVSLGDRVTITCKASEHINSWLAWYQQKPGNAPRLLISGATNLKTGVPSRFSGSASGKDYTLNITSLQTEDVATYYCQQYWGTPWTFGGGTKLEIK	–	–	–	–	–	binds
humanized chimeric anti-TGF-α antibody of MBL259-3 (antibody, human IgG1, V domains shown, tested as 293T culture supernatant; also called recombinant antibody MBL259-3) VH: VQLQQSGAELVRPGASVKLSCTASDFNIKDDYMHWMKQRPEQGLEWIGRIDPANGNTKYAPKFQDKATMTADTSSNTAYLQFSSLTSEDTAVYYCATSWGFPYWGQGTLVTVSA VL: DIVMTQAAPSVPVTPGESVSISCRSSKSLLHRNGNTYLYWFLQRPGQSPQLLIYRMSNLASGVPDRFSGSGSGTAFTLRISRVEAEDVGVYYCLQHLEYPYTFGSGTKLEIK	–	–	–	–	–	binds
humanized chimeric anti-TGF-α antibody of MBL292-1 (antibody, human IgG1, V domains shown, tested as 293T culture supernatant; also called recombinant antibody MBL292-1) VH: VQLQQSGAELVRPGASVKLSCTASGFNIKDDYMHWMKQRPEQGLEWIGRIDPANGNTKYAPKFQDKATITADTSSNTAYLQLSSLTSEDTAVYYCSRMGLLRGYWGQGTTLTVSS VL: IQMTQSSSSLSVSLGDRVTITCKASVHINSWLAWYQQKPGNAPRLLISGATNLKTGVPSRFSGSASGKDYTLSITSLQTEDVATYYCQQYWDTPWTFGGGTKLEIK	–	–	–	–	–	binds
